Where a chain is given by its changes, count along the chain named. Names and notes keep the numbering of the source. Blank lines part the entries; values can stand above or below the binder they belong to.
Tests used:
hTIM-3.ECD.MBPHis = biological target: T1, hTIM-3.ECD.MBPHis (human, UniProt Q8TDQ0 22-202); experiment: SPR Biacore 8K, antibody captured on anti-human IgG Fc CM5 chip, hTIM-3.ECD.MBPHis as analyte, 1:1 fit
T1 construct: extracellular domain; Made in Expi293 cells; also called human TIM-3.ECD.MBPAVIHIS; not shown: C-terminal MBP / AVI / 6xHis tag

CynoTIM-3.ECD.Fc = biological target: T2, CynoTIM-3.ECD.Fc (cynomolgus monkey, UniProt A0A2K5U3G7 22-195); experiment: SPR Biacore 8K, cynoTIM-3.ECD.Fc immobilised on CM5 chip, antibody as analyte (avidity), 1:1 fit
T2 construct: extracellular domain; also called Cynomolgus TIM-3, hFc tag; not shown: Fc tag
T2 sequence: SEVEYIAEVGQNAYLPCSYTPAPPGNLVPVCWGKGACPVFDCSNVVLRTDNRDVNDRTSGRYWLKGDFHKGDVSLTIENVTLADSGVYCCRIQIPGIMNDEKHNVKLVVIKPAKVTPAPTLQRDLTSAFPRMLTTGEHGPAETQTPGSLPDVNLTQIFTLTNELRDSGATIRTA

[1] = biological target: T3, human TIM-3, full length, on cells (human, UniProt Q8TDQ0 22-301); experiment: flow cytometry on hTIM-3-expressing transfectant cells, PE goat anti-human IgG-Fc
T3 construct: whole, on cells; also called hTIM-3; cell surface human TIM-3

[2] = biological target: human TIM-3 protein (coated on ELISA plates) (human, UniProt Q8TDQ0 22-200, limits assumed); experiment: competition ELISA on plate-coated human TIM-3 against biotinylated WBP340-BMK8, detection with SA-HRP
[3] = biological target: T3, human TIM-3, full length, on cells; experiment: FACS binding titration on human TIM-3 transfected cells after incubation of the antibody in human serum
Human TIM-1, His tag = biological target: T4, Human TIM-1, His tag (human, UniProt Q96D42 21-293, limits assumed); experiment: ELISA, plates coated with human TIM-1
T4 construct: Bought protein
T4 sequence (looked up): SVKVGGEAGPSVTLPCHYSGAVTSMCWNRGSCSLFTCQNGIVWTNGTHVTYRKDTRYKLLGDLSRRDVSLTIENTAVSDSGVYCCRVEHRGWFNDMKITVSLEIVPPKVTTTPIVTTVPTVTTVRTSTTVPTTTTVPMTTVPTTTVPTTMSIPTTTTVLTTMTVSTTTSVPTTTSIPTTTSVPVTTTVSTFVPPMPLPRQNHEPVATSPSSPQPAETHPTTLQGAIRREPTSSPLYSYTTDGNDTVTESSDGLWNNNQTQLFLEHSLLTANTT

Human TIM-4, His tag = biological target: T5, Human TIM-4, His tag (human, UniProt Q96H15 25-315, limits assumed); experiment: ELISA, plates coated with human TIM-4
T5 construct: Bought protein
T5 sequence (looked up): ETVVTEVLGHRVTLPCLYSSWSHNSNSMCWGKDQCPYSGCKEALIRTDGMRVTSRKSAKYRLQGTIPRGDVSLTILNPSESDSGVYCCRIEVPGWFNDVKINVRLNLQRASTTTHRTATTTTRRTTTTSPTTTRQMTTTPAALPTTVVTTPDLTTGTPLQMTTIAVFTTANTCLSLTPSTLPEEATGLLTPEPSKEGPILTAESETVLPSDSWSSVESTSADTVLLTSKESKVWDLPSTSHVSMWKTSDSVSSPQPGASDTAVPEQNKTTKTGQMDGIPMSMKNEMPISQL

[4] = biological target: T3, human TIM-3, full length, on cells; experiment: FACS on PHA-activated human CD4+ T cells (natural TIM-3), detection with PE goat anti-human IgG Fc, MFI
mFc-tagged human TIM-3 = biological target: T6, mFc-tagged human TIM-3 (human, UniProt Q8TDQ0 22-202, limits assumed); experiment: competition, flow cytometry: antibody pre-mixed with mFc-tagged human TIM-3, binding of TIM-3 to PtdSer on apoptotic Jurkat cells, PE anti-mouse IgG Fc; blockade of TIM-3 binding to PtdSer on apoptotic Jurkat cells
T6 construct: the assay text only says mFc-tagged human TIM-3; also called hTIM-3.ECD.mFc; not shown: mouse Fc tag at the C-terminus

[5] = biological target: T7, cynomolgus monkey TIM-3, full length, on transfected cells (cynomolgus monkey, UniProt A0A2K5U3G7 22-294); experiment: flow cytometry on cynoTIM-3-expressing transfectant cells, PE goat anti-human IgG-Fc
T7 construct: whole, on cells; cynoTIM-3-expressing transfectant cells; also called cynoTIM-3
T7 sequence: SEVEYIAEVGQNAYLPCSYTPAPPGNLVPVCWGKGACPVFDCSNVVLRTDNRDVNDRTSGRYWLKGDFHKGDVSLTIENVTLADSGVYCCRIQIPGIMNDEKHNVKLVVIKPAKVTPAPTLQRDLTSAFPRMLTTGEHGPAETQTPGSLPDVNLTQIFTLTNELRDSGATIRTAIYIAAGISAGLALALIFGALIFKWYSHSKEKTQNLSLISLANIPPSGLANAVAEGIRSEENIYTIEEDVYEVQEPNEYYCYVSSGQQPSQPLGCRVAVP

Kd (hTIM-3.ECD.MBPHis): 0.153 nM
koff (hTIM-3.ECD.MBPHis): 3.18e-05 s⁻¹
kon (hTIM-3.ECD.MBPHis): 208000 M⁻¹ s⁻¹
Kd (CynoTIM-3.ECD.Fc): 0.00452 nM
koff (CynoTIM-3.ECD.Fc): 7.49e-06 s⁻¹
kon (CynoTIM-3.ECD.Fc): 1.66e+06 M⁻¹ s⁻¹
B1: W3405-2.61.21-uAb-hIgG4.SPK (V87E) (antibody, V domains shown)
VH: EVQLLEAGGGPVQPGGSLRLSCAAAGFTFSNYAMSWVRQAPGKGLEWVSSISDNGGTAYHADSVQGRFTISRDNSKSTLYLQMNSLRAEDTAVYYCAKDFGDSPGYWGQGTLVTVSS
VL: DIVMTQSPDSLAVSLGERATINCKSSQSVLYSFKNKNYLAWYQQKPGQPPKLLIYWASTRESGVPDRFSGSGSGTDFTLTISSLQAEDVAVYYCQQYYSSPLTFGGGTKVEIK
notes: Human IgG4 (S228P) heavy constant region and kappa light chain; also called mutant_3

EC50 [1]: 0.13 nM
IC50 (read off the curve) [2]: ~0.8 nM
EC50 (read off the curve) [3]: ~0.4 nM
binding result (Human TIM-1, His tag): no binding
binding result (Human TIM-4, His tag): no binding
EC50 [4]: 0.096 nM
IC50 (mFc-tagged human TIM-3): 20 nM
EC50 [5]: 0.99 nM
Kd (hTIM-3.ECD.MBPHis): 0.138 nM
koff (hTIM-3.ECD.MBPHis): 3.2e-05 s⁻¹
kon (hTIM-3.ECD.MBPHis): 232000 M⁻¹ s⁻¹
Kd (CynoTIM-3.ECD.Fc): 0.006 nM
koff (CynoTIM-3.ECD.Fc): 1.73e-05 s⁻¹
kon (CynoTIM-3.ECD.Fc): 2.89e+06 M⁻¹ s⁻¹
B2: W3405-2.61.21-uAb-p1-hIgG4.SPK (antibody, V domains shown)
VH: B1 VH with N54Q
VL: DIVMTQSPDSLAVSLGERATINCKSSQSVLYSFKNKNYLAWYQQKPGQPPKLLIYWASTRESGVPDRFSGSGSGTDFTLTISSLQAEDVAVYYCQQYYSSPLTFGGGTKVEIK
notes: Fully human antibody; Constant region of human IgG4 (S228P) heavy chain and human kappa light chain; also called W3405 lead antibody; p1 variant (N→Q)
